The target in this experiment is RUNX1 Runt domain (UniProt Q01196 50-178). Briefly: ITC. In general terms: Isothermal titration calorimetry measures the heat released or taken up as one component is titrated into another.

For orientation: Kd means a measure of binding affinity in units of concentration. High values mean lower affinity, low ones higher affinity. The stoichiometry N is a count of units in the complex or per binding partner.

RUNX1 Runt domain, sequence (Q01196 50-178): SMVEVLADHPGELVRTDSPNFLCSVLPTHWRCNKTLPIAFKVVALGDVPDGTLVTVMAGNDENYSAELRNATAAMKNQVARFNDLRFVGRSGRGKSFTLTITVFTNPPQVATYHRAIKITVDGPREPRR

B1: CBFβ-SMMHC_(d134-236) (type I CBFβ-SMMHC fusion protein) (other)
chain: MPRVVPDQRSKFENEEFFRKLSRECEIKYTGFRDRPHEERQARFQNACRDGRSEIAFVATGTNLSLQFFPASWQGEQRQTPSREYVDLEREAGKVYLKAPMILNGVCVIWKGWIDLQRLDGMGCLEFDEERAQLHEYETELEDERKQRALAAAAKKKLEGDLKDLELQADSAIKGREEAIKQLRKLQAQMKDFQRELEDARASRDEIFATAKENEKKAKSLEADLMQLQEDLAAAERARKQADLEKEELAEELASSLSGRNALQDEKRRLEARIAQLEEELEEEQGNMEAMSDRVRKATQQAEQLSNELATERSTAQKNESARQQLERQNKELRSKLHEMEGAVKSKFKSTIAALEAKIAQLEEQVEQEAREKQAATKSLKQKDKKLKEILLQVEDERKMAEQYKEQAEKGNARVKQLKRQLEEAEEESQRINANRRKLQRELDEATESNEAMGREVNALKSKLRRGNETSFVPSRRSGGRRVIENADGSEEETDTRDADFNGTKASE
Consider B1, for which the Kd was approximately 709 nM and the “stoichiometry N” value was 1.17.
